From patent publication US20220041725A1 (MacroGenics, published 2022)

Target: T1, HER-2 (UniProt P04626 23-652, limits assumed)
T1 construct: also called HER2/neu; erbB-2
Assay: SPR (BIAcore 1000), HER-2 amine-coupled on chip, antibody injected at 6.25-200 nM

Row | Molecule | koff [s⁻¹] | kon [M⁻¹ s⁻¹]
1 | ch4D5 (antibody) | 6.3e-06 | 110000
2 | ch4D5-wild-type Fc (antibody, human IgG1, kappa, V domains shown, Chimeric IgG with wild-type human IgG1 Fc; also called ch4D5-FcWT (wild-type Fc); Chimeric 4D5 Antibody having a wild-type Fc) VH: QVQLQQSGPELVKPGASLKLSCTASGFNIKDTYIHWVKQRPEQGLEWIGRIYPTNGYTRYDPKFQDKATITADTSSNTAYLQVSRLTSEDTAVYYCSRWGGDGFYAMDYWGQGASVTVSS VL: DIVMTQSHKFMSTSVGDRVSITCKASQDVNTAVAWYQQKPGHSPKLLIYSASFRYTGVPDRFTGSRSGTDFTFTISSVQAEDLAVYYCQQHYTTPPTFGGGTKVEIKR | ~3.2e-07 | 170000
